From article PMC6280682, “The Micronemal Plasmodium Proteins P36 and P52 Act in Concert to Establish the Replication-Permissive Compartment Within Infected Hepatocytes” (Frontiers in Cellular and Infection Microbiology, 2018) come the findings set out here.

The assay concerns the target T1, Plasmodium yoelii P36 with a C-terminal mCherry tag (P36^mCherry) (Plasmodium yoelii, UniProt Q7RPW4 25-310).
T1 construct: P36, Plasmodium yoelii 17X, 6-cys s48/45 family, two s48/45 domains; predicted MW with mCherry 66 kDa; also called Py P36^mCherry; not shown: mCherry, C-terminal, kept
T1 sequence: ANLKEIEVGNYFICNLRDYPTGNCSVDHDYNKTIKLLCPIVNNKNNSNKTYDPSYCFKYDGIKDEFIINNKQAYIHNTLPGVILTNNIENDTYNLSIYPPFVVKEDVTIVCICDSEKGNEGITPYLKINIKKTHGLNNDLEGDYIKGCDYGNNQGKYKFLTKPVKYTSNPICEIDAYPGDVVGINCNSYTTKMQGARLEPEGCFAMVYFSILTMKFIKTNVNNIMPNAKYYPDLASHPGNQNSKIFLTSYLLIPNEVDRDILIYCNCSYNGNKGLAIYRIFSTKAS
As to the kind of experiment: affinity purification with mass spectrometry; BS3-crosslinked P36^mCherry sporozoite lysate immunoprecipitated with RFP-Trap, S-Trap digest, LC-MS/MS (Q-Exactive HF), spectral counting. Conditions: partners not purified.

B1: Plasmodium yoelii P52 (natural protein)
chain: NVPNPNTTIGHFEICEVNTSSGDAEECVLENEFGKMFLFICDIDYNEMSKNIVLPSECAKKTYIDHVNPNGTSPEVNTYDIFPDLIAANESQFRDKFYFYGTPYSSKDIDFICLCFSETKPDIKHVMKMSFKKMTKKIKGCDFGDNIPTKKDLTNGKALYENSSCHIYAYPGDVIGINCYKKDINNIYNNNLELQPNNCFHNVYYEDDILLSSKNLIPNSRVIPDPSNDVKLSKMHSYMSYIILPDEINENVKISCACKRDEYIGTMFLYVNTSKNILTSPDNNVEEIAPLNDHYISIGDMWDMGLHENPEQIQGIISNHANKKYYEHMKIYKSNKMDSSDDDESNETESSENESNERTHNGNRANKDANNSEKMTGNRRKKNNSINNTNYYSNYEDDNGINISTHDKYYEDQHFGNNGPLRKKRTFWQNMFGTS
notes: P52, Plasmodium yoelii 17X, 6-cys s48/45 family, two s48/45 domains; predicted MW 53 kDa; also called Py P52; source: endogenous, P. yoelii P36^mCherry salivary gland sporozoite lysate
One may read the stoichiometry N as the number of molecules, sites or subunits per partner or assembly. On to B1, for which the “stoichiometry N” value is around 1.
